Experimental data: patent US20240360226A1 (AstraZeneca / MedImmune, published 2024)
Residue numbers refer to the chain shown, from its start.

Columns and labels:
[1] = target: c-MET on human tumour cells (NCI-H1975, HCC827) (human) (UniProt P08581); assay: cell-based or functional assay
[2] = target: EGFR on human tumour cells (A431, NCI-H1975, HCC827) (human) (UniProt P00533); assay: cell-based or functional assay
HER3 = target: T1, HER3 (Homo sapiens (Human), UniProt P21860 20-643); assay: ELISA, antigen coated at 1 ug/mL, anti-human Fab-HRP detection, A450
T1 construct: also called EGFR HER family protein HER3

HER2 = target: T2, HER2 (Homo sapiens (Human), UniProt P04626 23-652); assay: as above
T2 construct: also called EGFR HER family protein HER2

[3] = target: T3, Cynomolgus monkey cMET (recombinant, soluble monomeric) (cynomolgus monkey, UniProt A0M8R7 25-932 (Papio anubis entry)); assay: as above
T3 construct: also called cyno c-Met
T3 sequence (A0M8R7 25-932 S170N/I621T): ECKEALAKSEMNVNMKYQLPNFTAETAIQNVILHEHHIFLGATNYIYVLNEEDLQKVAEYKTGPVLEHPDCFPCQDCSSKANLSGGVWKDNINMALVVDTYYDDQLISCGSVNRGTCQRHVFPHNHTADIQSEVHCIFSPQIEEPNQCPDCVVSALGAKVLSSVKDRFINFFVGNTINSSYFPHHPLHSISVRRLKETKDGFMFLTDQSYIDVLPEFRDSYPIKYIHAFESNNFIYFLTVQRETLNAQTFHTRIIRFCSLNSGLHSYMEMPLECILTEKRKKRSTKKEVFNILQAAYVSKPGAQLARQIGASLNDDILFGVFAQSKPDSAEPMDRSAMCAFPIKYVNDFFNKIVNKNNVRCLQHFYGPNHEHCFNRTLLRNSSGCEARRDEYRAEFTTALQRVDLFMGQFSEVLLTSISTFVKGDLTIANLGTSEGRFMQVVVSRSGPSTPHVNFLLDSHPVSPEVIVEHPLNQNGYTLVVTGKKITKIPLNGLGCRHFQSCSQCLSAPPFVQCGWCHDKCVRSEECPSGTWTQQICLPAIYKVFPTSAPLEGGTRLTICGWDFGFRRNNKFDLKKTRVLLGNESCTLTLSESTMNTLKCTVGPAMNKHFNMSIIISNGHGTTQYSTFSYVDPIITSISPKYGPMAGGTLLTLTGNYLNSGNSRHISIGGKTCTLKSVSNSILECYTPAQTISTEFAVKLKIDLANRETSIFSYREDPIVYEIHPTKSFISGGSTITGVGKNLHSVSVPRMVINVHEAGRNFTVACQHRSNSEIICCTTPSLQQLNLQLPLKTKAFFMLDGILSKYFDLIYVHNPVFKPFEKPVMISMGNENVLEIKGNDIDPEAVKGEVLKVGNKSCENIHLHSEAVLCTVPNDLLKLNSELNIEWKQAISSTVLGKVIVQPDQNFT
Method: (§1) Specificity for EGFR and cMET species paralogs and closely related family members was determined by ELISA. Briefly, antigen solutions were prepared in PBS at 1 μg/mL and 50 microliters was coated onto half area ELISA assay plates. Plates were washed and blocked with 1% BSA in PBS containing 0.005% Tween-20 (PBS-T) for one hour at room temperature. […] Wells were incubated with 50 microliters of the indicated primary antibodies diluted in PBS-T in a 1:3 dilution series, starting at 10 μg/mL and ending at 0.002 ug/mL, except for the HER4 binding mAb control, MAB1131, for which the series started at 1 μg/mL. The wells were washed 4 times in PBS-T, then 50 μl of goat anti-human Fab HRP-labeled secondary antibody, diluted 1:5000 in PBS-T, was added to each well and incubated for one hour at room temperature. […] 50 microliters of TMB stop solution was added to all wells and the absorbance was read at 450 nm on a SpectraMax M5 microplate reader. Data were analyzed in the SoftMax Pro 5 software and plotted using GraphPad Prism 7 graphing software.
(§2) To determine the species cross reactivity, ELISA assays were carried out as described above.

[4] = target: T4, Human cMET (recombinant, soluble monomeric) (human, UniProt P08581 25-932); assay: as above
T4 construct: also called His-tagged cMET antigen
T4 sequence (P08581 25-932): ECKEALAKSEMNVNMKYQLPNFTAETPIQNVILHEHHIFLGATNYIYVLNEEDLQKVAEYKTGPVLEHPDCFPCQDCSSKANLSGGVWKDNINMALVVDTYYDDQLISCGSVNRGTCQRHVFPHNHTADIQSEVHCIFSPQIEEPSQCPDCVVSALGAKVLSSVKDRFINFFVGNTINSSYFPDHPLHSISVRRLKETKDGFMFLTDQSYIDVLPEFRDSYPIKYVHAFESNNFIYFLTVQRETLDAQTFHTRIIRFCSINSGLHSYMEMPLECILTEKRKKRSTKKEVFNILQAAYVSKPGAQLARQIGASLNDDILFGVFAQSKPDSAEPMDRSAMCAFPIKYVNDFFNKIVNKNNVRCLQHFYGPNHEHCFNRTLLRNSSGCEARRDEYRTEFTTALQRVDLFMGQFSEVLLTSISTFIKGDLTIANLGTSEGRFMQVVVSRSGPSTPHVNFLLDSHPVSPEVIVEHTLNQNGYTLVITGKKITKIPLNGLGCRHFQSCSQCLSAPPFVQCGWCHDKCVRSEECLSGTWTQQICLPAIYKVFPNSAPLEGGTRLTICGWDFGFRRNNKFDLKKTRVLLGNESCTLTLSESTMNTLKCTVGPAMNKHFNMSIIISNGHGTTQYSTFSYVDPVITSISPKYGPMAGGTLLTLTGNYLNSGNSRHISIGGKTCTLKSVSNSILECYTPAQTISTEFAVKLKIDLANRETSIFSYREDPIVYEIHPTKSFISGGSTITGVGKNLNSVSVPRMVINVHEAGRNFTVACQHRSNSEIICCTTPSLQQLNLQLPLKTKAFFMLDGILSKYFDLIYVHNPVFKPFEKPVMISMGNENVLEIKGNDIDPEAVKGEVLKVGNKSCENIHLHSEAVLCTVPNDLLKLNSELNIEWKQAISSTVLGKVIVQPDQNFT
Method: as §1, §2

Mouse cMET (recombinant) = Mouse cMET (recombinant) (mouse, UniProt P16056 25-931, limits assumed); assay: as above
Sequence of Mouse cMET (recombinant) (P16056 25-931 limits assumed): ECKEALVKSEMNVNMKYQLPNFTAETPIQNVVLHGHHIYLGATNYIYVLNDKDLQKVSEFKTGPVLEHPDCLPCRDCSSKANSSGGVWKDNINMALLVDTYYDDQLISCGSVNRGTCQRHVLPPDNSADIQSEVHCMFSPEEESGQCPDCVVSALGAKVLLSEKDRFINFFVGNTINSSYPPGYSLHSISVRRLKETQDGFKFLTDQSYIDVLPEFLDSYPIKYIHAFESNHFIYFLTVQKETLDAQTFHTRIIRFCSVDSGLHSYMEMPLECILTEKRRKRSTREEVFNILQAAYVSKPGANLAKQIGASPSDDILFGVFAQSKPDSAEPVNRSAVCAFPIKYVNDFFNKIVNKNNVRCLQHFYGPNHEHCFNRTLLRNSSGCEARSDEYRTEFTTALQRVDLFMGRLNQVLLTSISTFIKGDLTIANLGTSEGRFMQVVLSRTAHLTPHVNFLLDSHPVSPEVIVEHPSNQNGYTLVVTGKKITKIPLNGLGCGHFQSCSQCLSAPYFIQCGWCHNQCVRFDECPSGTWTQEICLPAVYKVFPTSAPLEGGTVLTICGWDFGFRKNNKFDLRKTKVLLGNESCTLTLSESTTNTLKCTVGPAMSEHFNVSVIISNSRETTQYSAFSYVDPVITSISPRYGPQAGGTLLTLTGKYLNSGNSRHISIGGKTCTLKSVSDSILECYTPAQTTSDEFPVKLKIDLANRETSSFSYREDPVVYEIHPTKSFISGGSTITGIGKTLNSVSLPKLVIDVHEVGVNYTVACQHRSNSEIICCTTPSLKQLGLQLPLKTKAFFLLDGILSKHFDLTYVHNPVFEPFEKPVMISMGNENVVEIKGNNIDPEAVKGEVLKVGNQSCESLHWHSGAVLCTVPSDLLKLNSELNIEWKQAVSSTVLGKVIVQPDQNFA
Method: as §1, §2

[5] = target: T5, Mouse EGFR (recombinant, soluble monomeric) (mouse, UniProt Q01279 25-647); assay: SPR (Biacore T200), antibody captured on anti-human IgG, soluble monomeric antigen as analyte, 25 C
T5 construct: also called murine EGFR
Method: (§3) Mouse anti-human IgG was immobilized on a CM4 sensor chip with a final surface density of ˜2000 resonance units (RUs). A reference flow cell surface was also prepared on this sensor chip using identical immobilization protocol. Test and control article antibodies were prepared at 5-20 nM in instrument buffer (HBS-EP buffer; 0.01M HEPES, pH 7.4, 0.15M NaCl, 3 mM EDTA, and 0.005% P-20), along with 3-fold serial dilutions of purified EGFR (0.27-200 nM human, 0.4-900 nM cyno, and 4-1000 nM murine) or cMET proteins (0.27 to 66 nM human and 0.27-22 nM cyno) in instrument buffer. A sequential approach was utilized for kinetic measurements. Antibodies were first injected over the capture surface, at a flow rate of 10 μL/minute. Once the binding of the captured antibody stabilized, a single concentration of the analyte was injected over both capture and reference surfaces, at a flow rate of 75 μL/minute. The resulting binding response curves yielded the association phase data. Following the injection of analyte, the flow was then switched back to instrument buffer for 15 minutes to permit the collection of dissociation phase data, followed by a 1-minute pulse of 10 mM glycine, pH 1.5, to regenerate the antibody-captured surface on the chip. Binding responses against test and control article antibodies were recorded from duplicate injections of each concentration of analyte. In addition, several buffer injections were interspersed throughout the injection series. Select buffer injections were used along with the reference cell responses to correct the raw data sets for injection artifacts and/or nonspecific binding interactions, commonly referred to as “double referencing”. Corrected binding data were globally fit to a 1:1 binding model (Biacore T200 Evaluation software 2.0, GE Healthcare, Pittsburgh, PA).
(§4) Kinetic measurements to soluble monomeric forms of EGFR and cMET were performed using a BIACore instrument.

[6] = target: T6, Human EGFR (recombinant, soluble monomeric) (human, UniProt P00533 25-645); assay: as above
T6 construct: also called EGFR antigen; recombinant human EGFR
Method: as §3, §4

[7] = target: T7, Cynomolgus monkey EGFR (recombinant, soluble monomeric) (cynomolgus monkey, UniProt P55245 25-645 (rhesus entry)); assay: as above
T7 construct: also called cyno EGFR
Method: as §3, §4

HER4 = target: T8, HER4 (Homo sapiens (Human), UniProt Q15303 26-651); assay: ELISA, antigen coated at 1 ug/mL, anti-human Fab-HRP detection, A450
T8 construct: also called EGFR HER family protein HER4
T8 sequence: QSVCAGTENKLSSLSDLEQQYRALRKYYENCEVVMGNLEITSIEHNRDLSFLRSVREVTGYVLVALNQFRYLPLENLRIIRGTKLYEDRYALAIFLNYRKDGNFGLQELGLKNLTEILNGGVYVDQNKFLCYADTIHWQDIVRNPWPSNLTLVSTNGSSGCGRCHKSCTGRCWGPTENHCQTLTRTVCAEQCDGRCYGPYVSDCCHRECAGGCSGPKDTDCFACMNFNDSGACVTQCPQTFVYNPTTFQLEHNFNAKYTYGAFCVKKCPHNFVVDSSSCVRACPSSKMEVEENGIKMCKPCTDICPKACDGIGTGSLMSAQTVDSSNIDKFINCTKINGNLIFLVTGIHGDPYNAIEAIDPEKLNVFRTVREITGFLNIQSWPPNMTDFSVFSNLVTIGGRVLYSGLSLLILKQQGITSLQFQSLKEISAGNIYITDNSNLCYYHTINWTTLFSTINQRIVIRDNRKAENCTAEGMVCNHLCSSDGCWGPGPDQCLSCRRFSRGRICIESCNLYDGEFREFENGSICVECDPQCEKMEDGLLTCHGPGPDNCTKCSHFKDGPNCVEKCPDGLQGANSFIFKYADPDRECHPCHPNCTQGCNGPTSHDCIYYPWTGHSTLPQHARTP

[8] = target: T3, Cynomolgus monkey cMET (recombinant, …); assay: SPR (Biacore T200), antibody captured on anti-human IgG, soluble monomeric antigen as analyte, 25 C
Method: as §3, §4

[9] = target: T4, Human cMET (recombinant, soluble …); assay: as above
Method: as §3, §4

Sequence of c-MET on human tumour cells (NCI-H1975, HCC827) (human) (P08581 25-1390): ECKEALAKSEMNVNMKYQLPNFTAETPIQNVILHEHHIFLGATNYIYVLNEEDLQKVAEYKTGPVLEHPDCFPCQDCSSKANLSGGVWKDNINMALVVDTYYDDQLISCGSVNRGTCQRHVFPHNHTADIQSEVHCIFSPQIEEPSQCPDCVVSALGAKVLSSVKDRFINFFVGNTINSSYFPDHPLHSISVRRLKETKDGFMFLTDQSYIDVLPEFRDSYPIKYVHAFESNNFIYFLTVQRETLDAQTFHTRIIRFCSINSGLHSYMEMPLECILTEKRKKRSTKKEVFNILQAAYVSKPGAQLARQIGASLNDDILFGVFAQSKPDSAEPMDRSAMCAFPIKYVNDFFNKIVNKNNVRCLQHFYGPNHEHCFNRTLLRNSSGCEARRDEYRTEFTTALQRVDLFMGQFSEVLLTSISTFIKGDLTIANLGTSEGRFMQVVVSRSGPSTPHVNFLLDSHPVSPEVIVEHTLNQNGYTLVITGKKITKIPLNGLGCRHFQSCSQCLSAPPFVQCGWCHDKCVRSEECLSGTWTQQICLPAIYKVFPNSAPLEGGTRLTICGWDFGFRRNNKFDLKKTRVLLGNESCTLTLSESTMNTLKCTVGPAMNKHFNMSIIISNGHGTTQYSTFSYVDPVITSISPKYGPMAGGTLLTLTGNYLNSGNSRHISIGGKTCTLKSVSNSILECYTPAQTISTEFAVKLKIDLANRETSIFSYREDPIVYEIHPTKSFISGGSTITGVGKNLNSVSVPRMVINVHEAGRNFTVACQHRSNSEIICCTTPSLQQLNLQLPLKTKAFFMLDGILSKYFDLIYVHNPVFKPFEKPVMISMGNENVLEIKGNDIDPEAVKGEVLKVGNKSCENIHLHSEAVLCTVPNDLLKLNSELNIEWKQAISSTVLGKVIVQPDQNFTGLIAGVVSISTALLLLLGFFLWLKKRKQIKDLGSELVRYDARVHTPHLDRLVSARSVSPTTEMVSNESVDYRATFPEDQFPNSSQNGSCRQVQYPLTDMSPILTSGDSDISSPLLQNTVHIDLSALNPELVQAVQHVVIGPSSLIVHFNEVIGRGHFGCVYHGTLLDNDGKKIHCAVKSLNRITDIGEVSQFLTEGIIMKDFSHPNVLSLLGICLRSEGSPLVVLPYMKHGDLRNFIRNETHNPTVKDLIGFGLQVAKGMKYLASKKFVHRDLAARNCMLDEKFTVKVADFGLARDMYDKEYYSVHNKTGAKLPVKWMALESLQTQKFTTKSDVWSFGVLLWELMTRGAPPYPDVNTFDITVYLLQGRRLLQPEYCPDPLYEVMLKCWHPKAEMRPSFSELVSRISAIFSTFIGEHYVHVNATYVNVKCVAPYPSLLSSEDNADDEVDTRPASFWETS

B1: B09/R347 (bispecific antibody, part only; not given: non-binding arm and constant regions, V domains shown, not shown: another chain or arm of the molecule; a dimerising Fc or GST; small tags and cut ends)
VH: QVQLVQSGAEVKKPGASVKVSCKASGYTFTDYYIHWVRQATGQGLEWMGWMNPNSGNTGYAQKFQGRVTMTRDTSISTAYMELSSLRSEDTAVYYCARGQGYTHSWGQGTMVTVSS
VL: DIQMTQSPSTLSASVGDRVTITCRASEGIYHWLAWYQQKPGKAPKLLIYKASSLASGVPSRFSGSGSGTEFTLTISSLQPDDFATYYCQQYSNYPPTFGGGTKLEIK
modifications: AlexaFluor-647 or pHAb dye label on amines; positions not defined
Work on B1 yielded a cytoplasmic intensity of AF647-labelled antibody in H1975 cells, fold higher for RAA22/B09 DuetMab than for B09-IgG (FIG. 7B) [1] of 4.7 fold.

B2: RAA22/R347-AZ1508 (bispecific antibody, part only; not given: R347 control arm and constant regions, V domains shown, part only)
VH: QVQLVQSGAEVKKPGSSVKVSCKASGGTFSDNDFSWVRQAPGQGLEWMGAIVAVFRTETYAQKFQDRVKITADISTRTTYMELSSLRSEDTAVYYCARRLMSAISGPGAPLLMWGQGTLVTVSS
VL: QSALTQPRSVSGSPGQSVTISCTGTSSDVGGYNYVSWYQQHPGKAPKLMIYDVSKRPSGVPDRFSGSKSGNTASLTISGLQAEDEADYYCSSYTSSDTLEIFGGGTKLTVL
Binder B2 has an IC50, CellTiter-Glo cytotoxicity on NCI H1975 cells (FIG. 11) [2] of 20.5 nM and a fold difference in IC50 against the bispecific EGFR-cMET ADC [2] of 65 fold.

B3: RAA22 IgG (antibody, V domains shown)
VH: B2 VH
VL: B2 VL
notes: Bivalent parental IgG; Only the variable domains are tied to the parental IgG; also called anti-EGFR antibody clone RAA22
B3: no binding (tested: 10 ug/ml) (HER3); no binding (tested: 10 ug/ml) (HER2); no binding (tested: 10 ug/ml) [3]. For the same binder, the binding result [4] was “no binding (tested: 10 ug/ml)”, the binding result (Mouse cMET (recombinant)) was “no binding (tested: 10 ug/ml)” and the Kd [5] was 488 nM. The koff [5] was 0.019 s⁻¹, the kon [5] was 40300 M⁻¹ s⁻¹ and the Kd [6] was 46.6 nM. It also gave a koff [6] of 0.00206 s⁻¹, a kon [6] of 44100 M⁻¹ s⁻¹ and a Kd [7] of 170 nM. For the same binder, the koff [7] was 0.00601 s⁻¹, the kon [7] was 35400 M⁻¹ s⁻¹ and the binding result (HER4) was “no binding (tested: 10 ug/ml)”.

B4: QD6 IgG (antibody, V domains shown)
VH: B2 VH with F55V
VL: B2 VL with K55E, S91F
notes: Only variable domains are tied to the parental IgG; also called QD06; anti-EGFR antibody clone QD6
B4: no binding (tested: 10 ug/ml) (HER3); no binding (tested: 10 ug/ml) (HER2); no binding (tested: 10 ug/ml) [3]. The binding result [4] was “no binding (tested: 10 ug/ml)”, the binding result (Mouse cMET (recombinant)) was “no binding (tested: 10 ug/ml)” and the Kd [5] was 4.4 nM. The koff [5] was 0.000735 s⁻¹, the kon [5] was 167000 M⁻¹ s⁻¹ and the Kd [6] was 2 nM. For the same binder, the koff [6] was 0.000292 s⁻¹, the kon [6] was 148000 M⁻¹ s⁻¹ and the Kd [7] was 2.5 nM. For the same binder, the koff [7] was 0.000288 s⁻¹, the kon [7] was 114000 M⁻¹ s⁻¹ and the binding result (HER4) was “no binding (tested: 10 ug/ml)”.

B5: QD6/B09-57 DuetMab (bispecific antibody, human IgG1, kappa, lambda)
heavy 1: QVQLVQSGAEVKKPGSSVKVSCKASGGTFSDNDFSWVRQAPGQGLEWMGAIVAVVRTETYAQKFQDRVKITADISTRTTYMELSSLRSEDTAVYYCARRLMSAISGPGAPLLMWGQGTLVTVSSASTKGPSVFPLAPSSKSTSGGTAALGCLVKDYFPEPVTVSWNSGALTSGVHTFPAVLQSSGLYSLSSVVTVPSSSLGTQTYICNVNHKPSNTKVDKRVEPKSCDKTHTCPPCPAPELLGGPSCVFLFPPKPKDTLMISRTPEVTCVVVDVSHEDPEVKFNWYVDGVEVHNAKTKPREEQYNSTYRVVSVLTVLHQDWLNGKEYKCKVSNKALPAPIEKTISKAKGQPREPQVCTLPPSREEMTKNQVSLSCAVKGFYPSDIAVEWESNGQPENNYKTTPPVLDSDGSFFLVSKLTVDKSRWQQGNVFSCSVMHEALHNHYTQKSLSLSPGK
light 1: QSALTQPRSVSGSPGQSVTISCTGTSSDVGGYNYVSWYQQHPGKAPKLMIYDVSERPSGVPDRFSGSKSGNTASLTISGLQAEDEADYYCFSYTSSDTLEIFGGGTKLTVLGQPKAAPSVTLFPPSSEELQANKATLVCLISDFYPGAVTVAWKADSSPVKAGVETTTPSKQSNNKYAASSYLSLTPEQWKSHRSYSCQVTHEGSTVEKTVAPTECS
heavy 2: QVQLVQSGAEVKKPGASVKVSCKASGYTFTDYYIHWVRQATGQGLEWMGWMNPNSGNTGYAQKFQGRVTMTRDTSISTAYMELSSLRSEDTAVYYCARGQGYTHSWGQGTMVTVSSASTKGPSVCPLAPSSKSTSGGTAALGCLVKDYFPEPVTVSWNSGALTSGVHTFPAVLQSSGLYSLSSVVTVPSSSLGTQTYICNVNHKPSNTKVDKRVEPKSVDKTHTCPPCPAPELLGGPSCVFLFPPKPKDTLMISRTPEVTCVVVDVSHEDPEVKFNWYVDGVEVHNAKTKPREEQYNSTYRVVSVLTVLHQDWLNGKEYKCKVSNKALPAPIEKTISKAKGQPREPQVYTLPPCREEMTKNQVSLWCLVKGFYPSDIAVEWESNGQPENNYKTTPPVLDSDGSFFLYSKLTVDKSRWQQGNVFSCSVMHEALHNHYTQKSLSLSPG
light 2: DIQMTQSPSTLSASVGDRVTITCRASEGIYHWLAWYQQKPGKAPKLLIYKASSLASGVPSRFSGSGSGTEFTLTISSLQPDDFATYYCQQYSNYPPTFGGGTKLEIKRTVAAPSVFIFPPCDEQLKSGTASVVCLLNNFYPREAKVQWKVDNALQSGNSQESVTEQDSKDSTYSLSSTLTLSKADYEKHKVYACEVTHQGLSSPVTKSFNRGEV
notes: Monovalent bispecific IgG1 DuetMab with cysteine insertion after Ser239; Labelled with AlexaFluor-647 in the microscopy experiments; also called QD06/B09-57; bispecific EGFR/cMET DuetMAb
B5: no binding (tested: 10 ug/ml) (HER3); no binding (tested: 10 ug/ml) (HER2); no binding (tested: 10 ug/ml) (Mouse cMET (recombinant)). For the same binder, the Kd [5] was 6.2 nM, the koff [5] was 0.00078 s⁻¹ and the kon [5] was 126000 M⁻¹ s⁻¹. The Kd [6] was 5.9 nM, the koff [6] was 0.000374 s⁻¹ and the kon [6] was 63500 M⁻¹ s⁻¹. For the same binder, the Kd [8] was 2.2 nM, the koff [8] was 0.00206 s⁻¹ and the kon [8] was 958000 M⁻¹ s⁻¹. For the same binder, the Kd [9] was 1.6 nM, the koff [9] was 0.000696 s⁻¹ and the kon [9] was 425000 M⁻¹ s⁻¹. The Kd [7] was 2.8 nM, the koff [7] was 0.000585 s⁻¹ and the kon [7] was 210000 M⁻¹ s⁻¹. B5: no binding (tested: 10 ug/ml) (HER4).
